Laboratory results reported in the supplement of paper PMC10567573.

B1: VPS39 (parent)
chain: TTLLKCYLHTNVALVAPLLRLENN
B2: RAD54B (parent)
chain: YVQEKRDGLKRRQQLEEELLRAKI

Variants of: B1
Experiment: protein stability index of a GFP-peptide fusion (GPS, HEK-293T) (PSI 1-6); higher = more stable
Settings: c terminus: a fixed tail appended
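Also: lentivirally expressed fusions sorted by FACS into six bins by GFP to DsRed ratio, PSI derived from sequencing read proportions per bin multiplied by bin number.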

Variant	protein stability index
TTLLECYLHTNVALVAPLLRLENN	2.22
TTLLKCYLHTNVALVAPLLREENN	2.09
TTLLKNYLHTNVALVAPLLRLENN	1.91
TTLLKCYLHTNVALVAPLLRLEEN	2.49
TTLLKCYLHTNVALVAPLLRLENQ	3.12

Variants of: B2
Experiment: as above
Settings: c terminus: a fixed tail appended

Variant	protein stability index
AVQEKRDGLKRRQQLEEELLRAKI	3.7
CVQEKRDGLKRRQQLEEELLRAKI	3.52
DVQEKRDGLKRRQQLEEELLRAKI	4.4
EVQEKRDGLKRRQQLEEELLRAKI	3.68
FVQEKRDGLKRRQQLEEELLRAKI	1.79
GVQEKRDGLKRRQQLEEELLRAKI	4.19
HVQEKRDGLKRRQQLEEELLRAKI	3.91
IVQEKRDGLKRRQQLEEELLRAKI	3.14
KVQEKRDGLKRRQQLEEELLRAKI	3.74
LVQEKRDGLKRRQQLEEELLRAKI	3.56
MVQEKRDGLKRRQQLEEELLRAKI	3.95
NVQEKRDGLKRRQQLEEELLRAKI	3.74
PVQEKRDGLKRRQQLEEELLRAKI	3.89
QVQEKRDGLKRRQQLEEELLRAKI	3.42
RVQEKRDGLKRRQQLEEELLRAKI	3.77
SVQEKRDGLKRRQQLEEELLRAKI	4.37
TVQEKRDGLKRRQQLEEELLRAKI	3.59
VVQEKRDGLKRRQQLEEELLRAKI	2.81
WVQEKRDGLKRRQQLEEELLRAKI	3.92
YAQEKRDGLKRRQQLEEELLRAKI	3.72
YCQEKRDGLKRRQQLEEELLRAKI	3.08
YDQEKRDGLKRRQQLEEELLRAKI	4.46
YEQEKRDGLKRRQQLEEELLRAKI	4.64

Variant	protein stability index
YFQEKRDGLKRRQQLEEELLRAKI	3.62
YGQEKRDGLKRRQQLEEELLRAKI	4.12
YHQEKRDGLKRRQQLEEELLRAKI	2.55
YIQEKRDGLKRRQQLEEELLRAKI	2.84
YKQEKRDGLKRRQQLEEELLRAKI	3.82
YLQEKRDGLKRRQQLEEELLRAKI	3.41
YMQEKRDGLKRRQQLEEELLRAKI	3.65
YNQEKRDGLKRRQQLEEELLRAKI	3.73
YPQEKRDGLKRRQQLEEELLRAKI	3.2
YQQEKRDGLKRRQQLEEELLRAKI	3.31
YRQEKRDGLKRRQQLEEELLRAKI	3.82
YSQEKRDGLKRRQQLEEELLRAKI	4.01
YTQEKRDGLKRRQQLEEELLRAKI	3.75
YWQEKRDGLKRRQQLEEELLRAKI	3.35
YYQEKRDGLKRRQQLEEELLRAKI	3.56
YVAEKRDGLKRRQQLEEELLRAKI	1.98
YVCEKRDGLKRRQQLEEELLRAKI	2.01
YVDEKRDGLKRRQQLEEELLRAKI	2.97
YVEEKRDGLKRRQQLEEELLRAKI	2.35
YVFEKRDGLKRRQQLEEELLRAKI	1.95
YVGEKRDGLKRRQQLEEELLRAKI	1.9
YVHEKRDGLKRRQQLEEELLRAKI	1.91
YVIEKRDGLKRRQQLEEELLRAKI	1.77

Variant	protein stability index
YVKEKRDGLKRRQQLEEELLRAKI	1.81
YVLEKRDGLKRRQQLEEELLRAKI	1.75
YVMEKRDGLKRRQQLEEELLRAKI	1.64
YVNEKRDGLKRRQQLEEELLRAKI	2.05
YVPEKRDGLKRRQQLEEELLRAKI	2.43
YVREKRDGLKRRQQLEEELLRAKI	1.83
YVSEKRDGLKRRQQLEEELLRAKI	1.75
YVTEKRDGLKRRQQLEEELLRAKI	2.94
YVVEKRDGLKRRQQLEEELLRAKI	2.48
YVWEKRDGLKRRQQLEEELLRAKI	2.43
YVYEKRDGLKRRQQLEEELLRAKI	1.8
YVQAKRDGLKRRQQLEEELLRAKI	1.83
YVQCKRDGLKRRQQLEEELLRAKI	2.57
YVQDKRDGLKRRQQLEEELLRAKI	1.68
YVQFKRDGLKRRQQLEEELLRAKI	1.89
YVQGKRDGLKRRQQLEEELLRAKI	2.13
YVQHKRDGLKRRQQLEEELLRAKI	1.6
YVQIKRDGLKRRQQLEEELLRAKI	1.35
YVQKKRDGLKRRQQLEEELLRAKI	2.28
YVQLKRDGLKRRQQLEEELLRAKI	1.67
YVQMKRDGLKRRQQLEEELLRAKI	1.84
YVQNKRDGLKRRQQLEEELLRAKI	1.89
YVQPKRDGLKRRQQLEEELLRAKI	2.23

Variant	protein stability index
YVQQKRDGLKRRQQLEEELLRAKI	1.68
YVQRKRDGLKRRQQLEEELLRAKI	2.31
YVQSKRDGLKRRQQLEEELLRAKI	2.9
YVQTKRDGLKRRQQLEEELLRAKI	1.49
YVQVKRDGLKRRQQLEEELLRAKI	1.6
YVQWKRDGLKRRQQLEEELLRAKI	1.62
YVQYKRDGLKRRQQLEEELLRAKI	2.28
YVQEARDGLKRRQQLEEELLRAKI	1.96
YVQECRDGLKRRQQLEEELLRAKI	2.16
YVQEDRDGLKRRQQLEEELLRAKI	3.46
YVQEERDGLKRRQQLEEELLRAKI	3.57
YVQEFRDGLKRRQQLEEELLRAKI	2.49
YVQEGRDGLKRRQQLEEELLRAKI	1.91
YVQEHRDGLKRRQQLEEELLRAKI	2.26
YVQEIRDGLKRRQQLEEELLRAKI	2.77
YVQELRDGLKRRQQLEEELLRAKI	1.96
YVQEMRDGLKRRQQLEEELLRAKI	2.25
YVQENRDGLKRRQQLEEELLRAKI	2.19
YVQEPRDGLKRRQQLEEELLRAKI	2.05
YVQEQRDGLKRRQQLEEELLRAKI	2.48
